Assay [1] addresses T1, human NKG2A/CD94 on cells (CHOK1-hNKG2A/CD94) (human, UniProt P26715 1-233; Q13241 1-179). Kind of assay: cell-based or functional assay.
Assay [2] addresses T2, human NKG2C/CD94 on cells (CHOK1-hNKG2C/CD94) (human, UniProt P26717 1-231; Q13241 1-179).
T2 construct: whole, on cells; also called human NKG2C overexpressing cells; human NKG2C overexpressing cell line
The assay can be described thus: FACS on CHOK1-hNKG2C/CD94 cells. The protocol: (§1) Human NKG2A overexpressing cells (CHOK1-hNKG2A/CD94), cyno NKG2A overexpressing cells (CHOK1-cynoNKG2A/CD94), and human NKG2C overexpressing cells (CHOK1-hNKG2C/CD94) were digested with TrypLE (purchased from Gibco). Cells were collected by centrifugation, then resuspended to 2E6/mL with FACS buffer (PBS+2% FBS). The cells were added to a 96-well cell plate at 100 μL per well, and the supernatant was discarded after centrifugation. The antibody was gradiently diluted with FACS buffer (initial concentration of 200 nM, 5-fold dilution, including point 0, a total of 10 concentration points), added to the cells at 100 μL/well, mixed, and incubated at 4° C. for 1 hour. The incubated cells were centrifuged at 300 g for 5 min and washed twice with FACS buffer. Secondary antibody, anti-human IgG fluorescent secondary antibody 488 (purchased from Thermofisher A-11013), was added, incubated at 4° C. for one hour, then the cells were washed twice with FACS buffer, resuspended in PBS and analyzed by FACS instrument.

The target in assay [3] is T1, human NKG2A/CD94 on cells …. The assay can be described thus: cell-based or functional assay. The source holds these as a separate data set.
For assay [4] the target is unchanged. Kind of assay: FACS on human NKG2A overexpressing cell line. How it is done:
as §1
The binding activity of humanized antibodies to human NKG2A overexpressing cell line was detected by FACS (refer to Example 4 for FACS). The maximum MFIs of cAb-43 and its humanized mutant antibodies to human NKG2A overexpressing cell line were greater than that of the Z270 control antibody.

Assay [5] has the same target. Kind of assay: FACS on CHOK1-hNKG2A/CD94 cells. The protocol:
as §1

Changes are numbered by the printed parent chain. Numbers in names are those of the source. Where two headings read alike, the source gives them in different places.

From patent US20260209347A1 (BIORAY PHARMACEUTICAL, published 2026) come the findings set out here.

T2 sequence (P26717 whole entry, chain 1 of 2): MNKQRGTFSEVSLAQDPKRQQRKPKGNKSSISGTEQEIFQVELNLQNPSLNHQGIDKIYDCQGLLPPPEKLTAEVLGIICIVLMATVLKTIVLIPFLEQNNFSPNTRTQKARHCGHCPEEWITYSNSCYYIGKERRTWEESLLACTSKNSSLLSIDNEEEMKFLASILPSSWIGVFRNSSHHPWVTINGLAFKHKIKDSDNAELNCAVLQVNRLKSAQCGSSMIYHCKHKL
T2 sequence (Q13241 whole entry, chain 2 of 2): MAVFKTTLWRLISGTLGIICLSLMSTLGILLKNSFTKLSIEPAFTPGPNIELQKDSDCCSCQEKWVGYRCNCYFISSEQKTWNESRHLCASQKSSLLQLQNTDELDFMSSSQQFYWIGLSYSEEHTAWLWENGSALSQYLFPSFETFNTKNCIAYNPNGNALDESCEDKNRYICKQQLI
T1 sequence (P26715 whole entry, chain 1 of 2): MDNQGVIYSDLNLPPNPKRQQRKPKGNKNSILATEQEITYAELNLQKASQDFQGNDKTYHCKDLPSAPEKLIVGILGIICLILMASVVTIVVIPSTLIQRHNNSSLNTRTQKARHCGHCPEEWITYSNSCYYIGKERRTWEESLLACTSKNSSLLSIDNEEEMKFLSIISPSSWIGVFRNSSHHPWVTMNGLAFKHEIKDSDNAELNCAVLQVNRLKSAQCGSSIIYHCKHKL
T1 sequence (Q13241 whole entry, chain 2 of 2): as the sequence (Q13241 whole entry, chain 2 of 2) above

B1: hu-43VH-13/VL-11 (antibody, human IgG4 S228P, kappa, V domains shown)
VH: QVQLVQSGAEVKKPGASVKVSCKASGFNIQNTYIHWVRQAPGQGLEWIGRIDPASGSTEYAPKFQGRATITADTSTNTGYMELSSLRSEDTAVYYCARYGNFLYYYSMDYWGQGTLVTVSS
VL: DIVMTQSPLSLPVTPGEPASISCRSNKSLLHSNGNTYLYWFLQKPGQSPQLLIYRMSNLASGVPDRFSGSGSGTDFTLKISRVEAEDVGVYYCMQHLENPYTFGQGTKLEIKR
As to B1, the “IC50 (nM), killing of LCL721.221 target cells by NK92 cells” value (shortened to “IC50 (nM), killing”) in assay [1] worked out at 0.37 nM.

B2: cAb-43 (antibody, human IgG4 S228P, kappa, V domains shown)
VH: EVQLQQSVAELVRPGASVKLSCTASGFNIQNTYIHWVKQRPEQGLEWIGRIDPASGSTEYAPKFQGKATITADTSSNSGYLQLSSLTSEDTAIYYCARYGNFLYYYSMDYWGQGTSVTVSA
VL: B1 VL with S7A, P8A, L9P, L11V, P18S, A19V, K44R, D75A, K79R, Q105G
notes: human-mouse chimeric antibody, human IgG4 constant region; also called antibody number 43; NKG2A chimeric antibody
Turning to B2, in assay [1], the “IC50 (nM), killing” value is 0.28 nM. Also, in assay [2], the binding result is on record as “no binding (tested: initial concentration of 200 nM)”.

B3: hu-43VH-11/VL-31 (antibody, human IgG4 S228P, kappa, V domains shown)
VH: B1 VH with I48M, A68V, I70M
VL: B1 VL with S7T, P12S, E17Q, S48P, K112R, R113T
For B3, in assay [1], the “IC50 (nM), killing” value was determined as 0.45 nM.

B4: hu-43VH-11/VL-21 (antibody, human IgG4 S228P, kappa, V domains shown)
VH: B1 VH with I48M, A68V, I70M
VL: B1 VL with P15L, E17Q, L42Q, K44R, Q50R
In the case of B4, the “IC50 (nM), killing” value in assay [1] came to 0.33 nM.

B5: hu-43VH-21/VL-11 (antibody, human IgG4 S228P, kappa, V domains shown)
VH: B1 VH with I48M, A68V, I70M, T76I, S85R, E89D
VL: B1 VL
For B5, the “IC50 (nM), killing” value in assay [1] was determined as 0.52 nM.

B6: cAb-52 (antibody, human IgG4 S228P, kappa, V domains shown)
VH: EVQLQQSVAELVRPGASVKLSCTASGFNIQNTYLHWVKQRPEQGLEWIGRIDPANDNIKYVPKFQGKATITADTSSNTAYLQLSSLTSEDTAIYYCTRHGLFYEGWFAYWGQGTLVTVST
VL: EIVLTQSPALMAASPGEKVTITCSVSSSISSSNLHWYQQKSGTSPKPWIYGTSNLASGVPVRFSGSGSGTSYSLTISSMEAEDAATYYCQQWSSYPYTFGSGTKLEIKR
notes: human-mouse chimeric antibody, human IgG4 constant region; also called antibody number 52; NKG2A chimeric antibody
For B6, in assay [3], the “IC50 (nM), killing” value came to 0.28 nM. In assay [4], the “Maximum MFI” value was 18800 MFI. The binding result in assay [2] is “no binding (tested: initial concentration of 200 nM)”.

B7: cAb-9 (antibody, human IgG4 S228P, kappa, V domains shown)
VH: EVQLQQSVAELVRPGASVKLSCTASGFNIQNTYMHWVKERPEQGLEWIGRIDPANGDTEFAPKFQGKATLTTDTSSNTAYLQLSSLTSEDTAIYYCGRERYFYGSRGFAYWGQGTLVTVSA
VL: DILMTQSPPSMSVSLGDTVSITCHASQGISSNIGWLQQKPGKSFKGLIYHGTNLEDGVPSRFSGSGSGADYSLTISSLESEDFADYYCVQYAQFPWTFGGGTKLEIKR
notes: human-mouse chimeric antibody, human IgG4 constant region; also called antibody number 9; NKG2A chimeric antibody
Take B7: the binding result in assay [5] was “binds”; in assay [2] it was “no binding (tested: initial concentration of 200 nM)”.

B8: cAb-14 (antibody, human IgG4 S228P, kappa, V domains shown)
VH: EVQLQQSVAELVRPGASVKLSCTASGFNIKNTYIHWVKQRPEQGLEWIGRIDPANGNTKYAPKFQGKASIIVDTSSNTAYLQLSSLTSEDTAIYYCARYYASSPYYYNMDYWGQGTSVTVSS
VL: DIQMTQSPASLSVSVGETVTITCRASENIYSNLAWYQQKQGKSPQLLVYAATNLADGVPSRFSGSGSGTQYSLKINSLQSEDFGSYYCQHFWGTFTFGSGTKLEIKR
notes: human-mouse chimeric antibody, human IgG4 constant region; also called antibody number 14; NKG2A chimeric antibody
Turning to B8, the binding result is given as “binds” in assay [5] and “no binding (tested: initial concentration of 200 nM)” in assay [2].

B9: cAb-17 (antibody, human IgG4 S228P, kappa, V domains shown)
VH: EVQLQQSVAELVRPGASVKLSCTASGFNIKNTYIDWVKQRPEQGLEWIGNIDPANGNTKYAPKFQGKATITADTSSNTAYVQLSSLTSEDTAIYYCARWGGWDVRFAYWGQGTLVTVSA
VL: DIKMTQSPSSMYASLGERVTITCKASQDINTYLSWFQQKPGKSPKTLIYRANRLVDGVPSRFSGSGSGQNYSLTISSLEYEDMGIYYCLQYDEFPLTFGAGTKLELKR
notes: human-mouse chimeric antibody, human IgG4 constant region; also called antibody number 17; NKG2A chimeric antibody
In the case of B9, the binding result in assay [5] is “binds”; in assay [2], “no binding (tested: initial concentration of 200 nM)”.

B10: cAb-33 (antibody, human IgG4 S228P, kappa, V domains shown)
VH: B9 VH with I34M, N50R, V81L, W99E, G101N, V104D, R105W, A107V
VL: DVLMTQTPLSLPVSLGDQASISCRSSQSIVHSNGNTYLEWFLQKPGQSPKLLIYKVSNRFSGVPDRFSGSGSGTDFTLKISRVEAEDLGVYYCFQGSHVPPTFGGGTKLEIKR
notes: human-mouse chimeric antibody, human IgG4 constant region; also called antibody number 33; NKG2A chimeric antibody
For B10, the binding result is “binds” in assay [5] and “no binding (tested: initial concentration of 200 nM)” in assay [2].

B11: cAb-24 (antibody, human IgG4 S228P, kappa, V domains shown)
VH: EVQLQQSVAELVRPGASVKLSCTASGFNIQNTYMHWVKQRPEQGLEWIGRIDPANGNTKYAPKFQGKATITADTSSNTAYLQLSSLTSEDTAIYYCARYYDSRYGYWGQGTTLTVSS
VL: B9 VL with T31S, K45T, N70D, M83L, Y87F, L96W, A100G, L106I
notes: human-mouse chimeric antibody, human IgG4 constant region; also called antibody number 24; NKG2A chimeric antibody
For the molecule B11, the binding result in assay [5] is on record as “binds”; in assay [2], “no binding (tested: initial concentration of 200 nM)”.

B12: cAb-35 (antibody, human IgG4 S228P, kappa, V domains shown)
VH: B9 VH with I34M, N50R, Y60H, A72T, V81L
VL: B9 VL with T22N, K24Q, T31S, Y49H, N70D, Y91F
notes: human-mouse chimeric antibody, human IgG4 constant region; also called antibody number 35; NKG2A chimeric antibody
As for B12, the figures for the binding result in assay [5] and in assay [2] were “binds” and “no binding (tested: initial concentration of 200 nM)”, respectively.

B13: hu-52VH-13/VL-11 (antibody, human IgG4 S228P, kappa, V domains shown)
VH: QVQLVQSGAEVKKPGASVKVSCKASGFNIQNTYLHWVRQAPGQGLEWMGRIDPANDNIKYVPKFQGRVTMTADTSTNTAYMELSSLRSEDTAVYYCTRHGLFYEGWFAYWGQGTLVTVSS
VL: DIQLTQSPSSLSASVGDRVTITCSVSSSISSSNLHWYQQKPGKAPKPLIYGTSNLASGVPSRFSGSGSGTDYTLTISSLQPEDAATYYCQQWSSYPYTFGQGTKLEIKR
notes: full-length humanized antibody; also called hu-52 humanized antibody
Regarding B13, the “IC50 (nM), killing” value in assay [3] was 0.19 nM. Also, the “Maximum MFI” value in assay [4] came to 18800 MFI.

B14: hu-52VH-13/VL-31 (antibody, human IgG4 S228P, kappa, V domains shown)
VH: B13 VH
VL: EIVLTQSPATLSLSPGERATLSCSVSSSISSSNLHWYQQKPGQAPRPLIYGTSNLASGIPARFSGSGSGTDYTLTISSLEPEDAAVYYCQQWSSYPYTFGQGTKLEIKR
notes: as for B13
Turning to B14, in assay [3], the “IC50 (nM), killing” value amounted to 0.16 nM. In assay [4], the “Maximum MFI” value amounted to 18800 MFI.

B15: hu-52VH-23/VL-21 (antibody, human IgG4 S228P, kappa, V domains shown)
VH: B13 VH with T76I, S85R, E89D
VL: B13 VL with S10T, D71E, E82D
notes: as for B13
For B15, in assay [3], the “IC50 (nM), killing” value was 0.12 nM. Besides, in assay [4], the “Maximum MFI” value stood at 18000 MFI.

B16: hu-52VH-23/VL-31 (antibody, human IgG4 S228P, kappa, V domains shown)
VH: B13 VH with T76I, S85R, E89D
VL: B14 VL
notes: as for B13
As to B16, in assay [4], the “Maximum MFI” value worked out at 18100 MFI.

B17: hu-52VH-23/VL-11 (antibody, human IgG4 S228P, kappa, V domains shown)
VH: B13 VH with T76I, S85R, E89D
VL: B13 VL
notes: as for B13
Turning to B17, the “IC50 (nM), killing” value in assay [3] is 0.13 nM. Further, the “Maximum MFI” value in assay [4] came out at 18700 MFI.

B18: hu-52VH-33/VL-11 (antibody, human IgG4 S228P, kappa, V domains shown)
VH: B13 VH with A16S, M70I
VL: B13 VL
notes: full-length humanized IgG4 antibody (not the L235E/D265A/R409K IgG4 mutant); also called hu-52 humanized antibody
Turning to B18, the “IC50 (nM), killing” value in assay [3] was 0.09 nM. Besides, the “Maximum MFI” value in assay [4] turned out to be 18800 MFI.

B19: hu-52VH-33/VL-21 (antibody, human IgG4 S228P, kappa, V domains shown)
VH: B13 VH with A16S, M70I
VL: B13 VL with S10T, D71E, E82D
notes: as for B13
As to B19, the “Maximum MFI” value in assay [4] turned out to be 18000 MFI.

B20: hu-52VH-13/VL-21 (antibody, human IgG4 S228P, kappa, V domains shown)
VH: B13 VH
VL: B13 VL with S10T, D71E, E82D
notes: as for B13
Consider B20, for which, in assay [3], the “IC50 (nM), killing” value is 0.14 nM. The “Maximum MFI” value in assay [4] came to 18900 MFI.
